Holding throughout (experiment): protein microarray
Common to all, as to details: Protein microarray binding buffer, salt, pH and temperature not given in the material

Data set [1] has as its system Ydl124w (Saccharomyces cerevisiae).
Data set [2] deals with Mdh3 (Saccharomyces cerevisiae).
Data set [3] concerns Npl3 (Saccharomyces cerevisiae).
The subject of data set [4] is She2 (Saccharomyces cerevisiae).
Data set [5] deals with Rrp5 (Saccharomyces cerevisiae).
Data set [6] has as its system Khd1 (Hek2) (Saccharomyces cerevisiae).
Data set [7] concerns Gcy1 (Saccharomyces cerevisiae).
The subject of data set [8] is Pcs60 (Saccharomyces cerevisiae).
Data set [9] concerns Scp160 (Saccharomyces cerevisiae).

The text below walks through data of PMC2937035.

Turning to ASH1 mRNA, the binding signal (normalized mean signal (Cy3); Cy5 14.6) in [1] turned out to be 11.9; in data set [5], 3.8. Also, in data set [2], the binding signal (normalized mean signal (Cy3); Cy5 60.2) is 2.9. Further, the binding signal (normalized mean signal (Cy3); Cy5 153.8) in data set [3] turned out to be 7.1. For the same substance, in [4], the binding signal (normalized mean signal (Cy3); Cy5 17.8) came to 17.1. Also, the binding signal (normalized mean signal (Cy3); Cy5 24.0) in data set [6] is 3.4. Besides, the binding signal (normalized mean signal (Cy3); Cy5 19.6) in [7] is 8.9. Also, the binding signal (normalized mean signal (Cy3); Cy5 89.8) in data set [8] is 3.7. Further, the binding signal (normalized mean signal (Cy3); Cy5 117.7) in [9] is 2.9.
